According to PMC3617563 (Biochemistry, 2012):
Residue numbers refer to the chain shown, from its start. Numbers in names are those of the source. Like-named read-outs stand apart in the source and are kept apart here.

B1: wild-type USP2 catalytic core (human ubiquitin-specific protease 2, amino acids 259 to 605) (domain or fragment, UniProt O75604 259-605, looked up)
chain: NSKSAQGLAGLRNLGNTCFMNSILQCLSNTRELRDYCLQRLYMRDLHHGSNAHTALVEEFAKLIQTIWTSSPNDVVSPSEFKTQIQRYAPRFVGYNQQDAQEFLRFLLDGLHNEVNRVTLRPKSNPENLDHLPDDEKGRQMWRKYLEREDSRIGDLFVGQLKSSLTCTDCGYCSTVFDPFWDLSLPIAKRGYPEVTLMDCMRLFTKEDVLDGDEKPTCCRCRGRKRCIKKFSIQRFPKILVLHLKRFSESRIRTSKLTTFVNFPLRDLDLREFASENTNHAVYNLYAVSNHSGTTMGGHYTAYCRSPGTGEWHTFNDSSVTPMSSSQVRTSDAYLLFYELASPPSRM
B2: C276A USP2 catalytic core (inactive active-site mutant) (domain or fragment, human, UniProt O75604 259-605, looked up)
chain: B1 chain with C18A

What was measured:
[1] = molecular target: T1, native ubiquitin (monoubiquitin) (UniProt P0CG48 1-76); test: stopped-flow fluorescence
[2] = molecular target: T2, Ub-AMC (ubiquitin-7-amino-4-methylcoumarin) (human, UniProt P0CG48 1-75, 7-amino-4-methylcoumarin (AMC) on the C-terminal glycine); test: stopped-flow fluorescence
[3] = molecular target: T1, native ubiquitin (monoubiquitin); test: stopped-flow fluorescence; remark: listed apart in the source
[4] = molecular target: T2, Ub-AMC …; test: stopped-flow fluorescence; remark: listed apart in the source
[5] = molecular target: T2, Ub-AMC …; test: other fluorescence titration

| Binder | koff [1] | kon [1] | Kd [2] | koff [3] | kon [3] | koff [4] | kon [4] | Kd [5] |
| --- | --- | --- | --- | --- | --- | --- | --- | --- |
| B1 | 2.64 ± 0.56 s⁻¹ | 400000 ± 10000 M⁻¹ s⁻¹ |  |  |  |  |  |  |
| B2 |  |  | 5.5 µM | 7.54 ± 2.6 s⁻¹ | 480000 ± 50000 M⁻¹ s⁻¹ | 1.82 ± 0.17 s⁻¹ | 330000 ± 20000 M⁻¹ s⁻¹ | 2.9 ± 0.6 µM |
